Reference: patent publication US20200325208A1 (IMMUNOWAKE, published 2020)
Where two headings read alike, the source gives them in different places.

B1: aPD-L1/LC-GS6-VEGFR-mIgG1 (other)
heavy: EVQLVESGGGLVQPGGSLRLSCAASGFTFSRYWMSWVRQAPGKGLEWVANIKQDGSEKYYVDSVKGRFTISRDNAKNSLYLQMNSLRAEDTAVYYCAREGGWFGELAFDYWGQGTLVTVSSASTKGPSVFPLAPSSKSTSGGTAALGCLVKDYFPEPVTVSWNSGALTSGVHTFPAVLQSSGLYSLSSVVTVPSSSLGTQTYICNVNHKPSNTKVDKRVEPKSCDKTHTCPPCPAPEFEGGPSVFLFPPKPKDTLMISRTPEVTCVVVDVSHEDPEVKFNWYVDGVEVHNAKTKPREEQYNSTYRVVSVLTVLHQDWLNGKEYKCKVSNKALPASIEKTISKAKGQPREPQVYTLPPSRDELTKNQVSLTCLVKGFYPSDIAVEWESNGQPENNYKTTPPVLDSDGSFFLYSKLTVDKSRWQQGNVFSCSVMHEALHNHYTQKSLSLSPGK
light: EIVLTQSPGTLSLSPGERATLSCRASQRVSSSYLAWYQQKPGQAPRLLIYDASSRATGIPDRFSGSGSGTDFTLTISRLEPEDFAVYYCQQYGSLPWTFGQGTKVEIKRTVAAPSVFIFPPSDEQLKSGTASVVCLLNNFYPREAKVQWKVDNALQSGNSQESVTEQDSKDSTYSLSSTLTLSKADYEKHKVYACEVTHQGLSSPVTKSFNRGECTGGGGSGGGGSGGGGSGGGGSGGGGSGGGGSTGSDTGRPFVEMYSEIPEIIHMTEGRELVIPCRVTSPNITVTLKKFPLDTLIPDGKRIIWDSRKGFIISNATYKEIGLLTCEATVNGHLYKTNYLTHRQTNTIIDVVLSPSHGIELSVGEKLVLNCTARTELNVGIDFNWEYPSSKHQHKKLVLSPVNRDLKTQSGSEMKKFLSTLTIDGVTRSDQGLYTCAASSGLMTKKNSTFVRVHEK
notes: Durvalumab (Fc-mutated IgG1) with Flt1d2-Flk1d3 fused to the C-terminus of the light chains through the GS6 linker; Expressed in CHO cells
B2: Ixekizumab (e.g., Taltz®) (antibody, human IgG4 S228P, kappa, V domains shown)
VH: QVQLVQSGAEVKKPGSSVKVSCKASGYSFTDYHIHWVRQAPGQGLEWMGVINPMYGTTDYNQRFKGRVTITADESTSTAYMELSSLRSEDTAVYYCARYDYFTGTGVYWGQGTLVTVSS
VL: DIVMTQTPLSLSVTPGQPASISCRSSRSLVHSRGNTYLHWYLQKPGQSPQLLIYKVSNRFIGVPDRFSGSGSGTDFTLKISRVEAEDVGVYYCSQSTHLPFTFGQGTKLEIKR
notes: Parental full-length IgG4 antibody; also called anti-IL-17A antibody
B3: Human VEGF121/VEGF-A protein (human VEGF 121 isoform) with 6-His tag (ligand)
chain: APMAEGGGQNHHEVVKFMDVYQRSYCHPIETLVDIFQEYPDEIEYIFKPSCVPLMRCGGCCNDEGLECVPTEESNITMQIMRIKPHQGQHIGEMSFLQHNKCECRPKKDRARQEKCDKPRR
notes: range 27-147; Bought from Sino Biological; captured on the ELISA plate through an anti-His-tag antibody; not shown: 6-His tag
B4: Durvalumab (e.g., IMFINZI™) (antibody, human IgG1, kappa, V domains shown)
VH: EVQLVESGGGLVQPGGSLRLSCAASGFTFSRYWMSWVRQAPGKGLEWVANIKQDGSEKYYVDSVKGRFTISRDNAKNSLYLQMNSLRAEDTAVYYCAREGGWFGELAFDYWGQGTLVTVSS
VL: EIVLTQSPGTLSLSPGERATLSCRASQRVSSSYLAWYQQKPGQAPRLLIYDASSRATGIPDRFSGSGSGTDFTLTISRLEPEDFAVYYCQQYGSLPWTFGQGTKVEIKR
notes: Parental full-length IgG1 kappa; also called MEDI4736; anti-PD-L1 antibody
B5: Nivolumab (e.g., Opdivo®) (antibody, human IgG4 S228P, kappa, V domains shown)
VH: QVQLVESGGGVVQPGRSLRLDCKASGITFSNSGMHWVRQAPGKGLEWVAVIWYDGSKRYYADSVKGRFTISRDNSKNTLFLQMNSLRAEDTAVYYCATNDDYWGQGTLVTVSS
VL: EIVLTQSPATLSLSPGERATLSCRASQSVSSYLAWYQQKPGQAPRLLIYDASNRATGIPARFSGSGSGTDFTLTISSLEPEDFAVYYCQQSSNWPRTFGQGTKVEIKR
notes: Parental full-length IgG4 antibody; also called anti-PD-1 antibody
B6: Pembrolizumab (e.g., Keytruda®) (antibody, human IgG4 S228P, kappa, V domains shown)
VH: QVQLVQSGVEVKKPGASVKVSCKASGYTFTNYYMYWVRQAPGQGLEWMGGINPSNGGTNFNEKFKNRVTLTTDSSTTTAYMELKSLQFDDTAVYYCARRDYRFDMGFDYWGQGTTVTVSS
VL: EIVLTQSPATLSLSPGERATLSCRASKGVSTSGYSYLHWYQQKPGQAPRLLIYLASYLESGVPARFSGSGSGTDFTLTISSLEPEDFAVYYCQHSRDLPLTFGGGTKVEIKR
notes: Parental full-length IgG4 antibody, used as the positive anti-PD-1 control; also called anti-PD-1 antibody

Columns and labels:
[1] = target: B3; experiment: ELISA, antigen captured by anti-His antibody on plate, HRP anti-IgG Fc detection
Method: (§1) 96-well ELISA plates were coated with 100 μl His-tag antibody (capture antibody, 0.4 μg/ml) at room temperature (RT) overnight. The coated plates were washed with washing buffer (pH 7.4 PBS with 0.1% Tween 20) three times, and blocked with 3% BSA in washing buffer for 2 hours, at RT. […] After washing three times, VEGFR-antibody light chain fusion proteins of various concentrations in washing buffer containing 3% BSA were added to the coated plates, and let incubation for 2 hours at RT. Aflibercept (VEGFR-Fc fusion protein) and the corresponding parental full-length antibody were included as positive controls. […] After washing three times, HRP conjugated anti-gG Fc antibody (secondary antibody) was added (1:6000 dilution with 3% BSA in washing buffer), and incubated for 2 hours at RT. After washing four times, 100 μl HRP substrate was added to each well. After developing for 20 minutes, stop buffer was added to each well. Optical density (OD) of each well was measured immediately using a microplate reader at 450 nm. EC₅, was calculated if OD>2.0; otherwise, EC₅₀ was not calculated.

[2] = target: B3; experiment: as above; remark: listed apart in the source
Method: as §1

Human PD-1 protein = target: T1, Human PD-1 protein (human, UniProt Q15116 25-167, limits assumed); experiment: as above
T1 construct: Purchased
T1 sequence (Q15116 25-167 limits assumed): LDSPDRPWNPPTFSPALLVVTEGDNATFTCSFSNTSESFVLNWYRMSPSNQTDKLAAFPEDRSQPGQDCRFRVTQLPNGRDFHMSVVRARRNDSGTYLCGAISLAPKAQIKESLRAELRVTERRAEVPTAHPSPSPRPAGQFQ
Method: as §1

Human IL-17A protein = target: T2, Human IL-17A protein (human, UniProt Q16552 24-155); experiment: as above
T2 construct: Purchased
T2 sequence (Q16552 24-155 limits assumed): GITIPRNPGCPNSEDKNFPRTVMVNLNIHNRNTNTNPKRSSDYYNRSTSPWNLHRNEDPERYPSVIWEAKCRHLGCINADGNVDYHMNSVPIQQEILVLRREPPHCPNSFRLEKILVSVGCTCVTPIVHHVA
Method: as §1

EGFR/LC-GS6-VEGFR-IgG1 = target: T3, EGFR/LC-GS6-VEGFR-IgG1; experiment: ELISA
T3 construct: Cetuximab IgG1 with Flt1d2-Flk1d3 fused to the C-terminus of the light chains through the GS6 linker; Expressed in CHO cells

TNFα/LC-GS6-VEGFR-IgG1 = TNFα/LC-GS6-VEGFR-IgG1 (Homo sapiens (Human), UniProt P0DOX5 2-449 = IgG part); experiment: ELISA
[3] = target: T4, tPD-L1/LC-GS6-VEGFR-nIgG1 (Homo sapiens (Human), UniProt P0DOX5 2-449 = IgG part); experiment: ELISA
T4 construct: Atezolizumab (de-glycosylated IgG1) with Flt1d2-Flk1d3 fused to the C-terminus of the light chains through the GS6 linker; Expressed in CHO cells

Binder: B1
- EC50 [1]: 34.5 nM

Binder: B2
- binding result [2]: no binding
- binding result (Human PD-1 protein): no binding
- EC50 (Human IL-17A protein): 1.1 nM

Binder: B3
- binding result (EGFR/LC-GS6-VEGFR-IgG1): binds
- binding result (TNFα/LC-GS6-VEGFR-IgG1): binds
- binding result [3]: binds

Binder: B4
- binding result [1]: no binding

Binder: B5
- binding result [2]: no binding
- binding result (Human IL-17A protein): no binding

Binder: B6
- binding result [2]: no binding
- binding result (Human IL-17A protein): no binding
